T1: ZNF148 (Homo sapiens, UniProt Q9UQR1)
T1 sequence: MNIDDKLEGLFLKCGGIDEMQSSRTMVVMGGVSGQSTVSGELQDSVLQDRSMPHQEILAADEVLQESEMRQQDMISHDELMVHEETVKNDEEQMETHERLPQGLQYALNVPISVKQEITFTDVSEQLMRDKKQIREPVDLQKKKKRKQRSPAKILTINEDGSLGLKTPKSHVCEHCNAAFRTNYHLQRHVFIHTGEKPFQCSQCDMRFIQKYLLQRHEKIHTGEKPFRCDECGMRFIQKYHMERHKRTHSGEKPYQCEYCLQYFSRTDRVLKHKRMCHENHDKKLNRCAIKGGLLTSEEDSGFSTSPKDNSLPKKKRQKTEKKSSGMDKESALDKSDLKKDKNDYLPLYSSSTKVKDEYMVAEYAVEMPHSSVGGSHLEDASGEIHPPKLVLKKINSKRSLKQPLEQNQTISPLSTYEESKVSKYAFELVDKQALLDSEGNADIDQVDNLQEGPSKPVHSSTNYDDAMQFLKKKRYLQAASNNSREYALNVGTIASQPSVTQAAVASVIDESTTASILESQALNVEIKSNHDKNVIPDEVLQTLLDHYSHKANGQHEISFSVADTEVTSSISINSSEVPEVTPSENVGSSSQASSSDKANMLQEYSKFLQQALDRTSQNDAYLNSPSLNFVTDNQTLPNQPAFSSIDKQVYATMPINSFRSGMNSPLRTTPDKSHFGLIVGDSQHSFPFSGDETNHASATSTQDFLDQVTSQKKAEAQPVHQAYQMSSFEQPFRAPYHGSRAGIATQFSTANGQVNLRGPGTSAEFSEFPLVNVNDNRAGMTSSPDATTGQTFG

T2: BBX (Homo sapiens, UniProt Q8WY36)
T2 sequence: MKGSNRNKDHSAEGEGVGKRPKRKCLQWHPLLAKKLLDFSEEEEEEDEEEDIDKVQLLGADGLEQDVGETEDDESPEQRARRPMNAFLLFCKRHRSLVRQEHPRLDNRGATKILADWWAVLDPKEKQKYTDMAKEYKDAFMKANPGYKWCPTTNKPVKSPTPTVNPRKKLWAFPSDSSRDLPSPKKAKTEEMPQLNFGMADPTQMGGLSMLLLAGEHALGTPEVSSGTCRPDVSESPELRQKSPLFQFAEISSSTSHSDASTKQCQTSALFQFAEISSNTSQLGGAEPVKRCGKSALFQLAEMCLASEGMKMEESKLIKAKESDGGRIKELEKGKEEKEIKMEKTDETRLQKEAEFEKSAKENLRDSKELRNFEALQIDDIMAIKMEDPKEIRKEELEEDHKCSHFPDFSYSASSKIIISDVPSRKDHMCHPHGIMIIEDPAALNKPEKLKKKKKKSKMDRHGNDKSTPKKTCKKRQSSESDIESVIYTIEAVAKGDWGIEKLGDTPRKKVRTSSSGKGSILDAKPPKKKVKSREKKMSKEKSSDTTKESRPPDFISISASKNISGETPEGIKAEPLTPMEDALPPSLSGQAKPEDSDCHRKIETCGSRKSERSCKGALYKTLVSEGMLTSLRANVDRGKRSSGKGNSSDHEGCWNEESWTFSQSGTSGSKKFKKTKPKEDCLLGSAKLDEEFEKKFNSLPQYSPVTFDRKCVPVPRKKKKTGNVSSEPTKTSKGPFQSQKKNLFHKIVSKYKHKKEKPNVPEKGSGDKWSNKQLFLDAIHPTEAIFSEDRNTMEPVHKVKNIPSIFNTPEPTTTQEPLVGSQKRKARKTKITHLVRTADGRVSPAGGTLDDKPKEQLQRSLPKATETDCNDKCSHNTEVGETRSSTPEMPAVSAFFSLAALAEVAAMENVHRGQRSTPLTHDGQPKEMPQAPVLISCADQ

T3: VEZF1 (Homo sapiens, UniProt Q14119)
T3 sequence: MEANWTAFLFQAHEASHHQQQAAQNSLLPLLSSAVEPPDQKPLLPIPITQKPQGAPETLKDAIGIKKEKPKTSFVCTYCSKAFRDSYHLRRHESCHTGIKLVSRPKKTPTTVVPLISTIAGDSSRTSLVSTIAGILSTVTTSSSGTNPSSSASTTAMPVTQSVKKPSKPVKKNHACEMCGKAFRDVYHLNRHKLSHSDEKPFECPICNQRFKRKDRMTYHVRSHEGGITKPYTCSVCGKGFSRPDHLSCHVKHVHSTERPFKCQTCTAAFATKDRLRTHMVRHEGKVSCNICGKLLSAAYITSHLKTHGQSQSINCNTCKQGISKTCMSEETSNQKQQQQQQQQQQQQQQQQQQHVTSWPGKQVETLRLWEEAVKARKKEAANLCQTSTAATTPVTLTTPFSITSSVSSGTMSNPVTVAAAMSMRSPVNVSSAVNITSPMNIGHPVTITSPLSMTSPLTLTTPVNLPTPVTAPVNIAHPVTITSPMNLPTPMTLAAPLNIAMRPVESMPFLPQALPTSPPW


Tests used:
Assay in all cases: pulldown; 150 mM NaCl, 50 mM Tris pH 8, 0.25% NP-40, 1 mM TCEP; 4 C, 2 h; 100 ug HeLa nuclear lysate
Settings in all cases: protein: extract; label: 5' biotin (strand 1)
[1] = molecular target: T1, ZNF148
[2] = molecular target: T2, BBX
[3] = molecular target: T3, VEZF1
[4] = molecular target: KLF5 (Homo sapiens, UniProt Q13887)
KLF5, sequence (Q13887 whole entry): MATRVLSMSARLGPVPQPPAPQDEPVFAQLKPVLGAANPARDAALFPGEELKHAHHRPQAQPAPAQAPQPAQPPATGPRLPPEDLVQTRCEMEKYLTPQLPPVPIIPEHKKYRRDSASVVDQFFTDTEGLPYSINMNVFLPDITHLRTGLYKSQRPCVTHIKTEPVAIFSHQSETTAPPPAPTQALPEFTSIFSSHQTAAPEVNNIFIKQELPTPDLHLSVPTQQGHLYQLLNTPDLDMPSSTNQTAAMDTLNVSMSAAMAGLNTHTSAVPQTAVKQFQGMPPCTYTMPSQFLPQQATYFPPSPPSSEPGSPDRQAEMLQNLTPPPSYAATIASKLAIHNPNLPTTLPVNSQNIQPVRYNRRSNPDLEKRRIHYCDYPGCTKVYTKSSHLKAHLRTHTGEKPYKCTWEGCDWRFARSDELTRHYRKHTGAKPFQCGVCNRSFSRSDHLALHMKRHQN

[5] = molecular target: ZBTB7A (Homo sapiens, UniProt O95365)
ZBTB7A, sequence (O95365 whole entry): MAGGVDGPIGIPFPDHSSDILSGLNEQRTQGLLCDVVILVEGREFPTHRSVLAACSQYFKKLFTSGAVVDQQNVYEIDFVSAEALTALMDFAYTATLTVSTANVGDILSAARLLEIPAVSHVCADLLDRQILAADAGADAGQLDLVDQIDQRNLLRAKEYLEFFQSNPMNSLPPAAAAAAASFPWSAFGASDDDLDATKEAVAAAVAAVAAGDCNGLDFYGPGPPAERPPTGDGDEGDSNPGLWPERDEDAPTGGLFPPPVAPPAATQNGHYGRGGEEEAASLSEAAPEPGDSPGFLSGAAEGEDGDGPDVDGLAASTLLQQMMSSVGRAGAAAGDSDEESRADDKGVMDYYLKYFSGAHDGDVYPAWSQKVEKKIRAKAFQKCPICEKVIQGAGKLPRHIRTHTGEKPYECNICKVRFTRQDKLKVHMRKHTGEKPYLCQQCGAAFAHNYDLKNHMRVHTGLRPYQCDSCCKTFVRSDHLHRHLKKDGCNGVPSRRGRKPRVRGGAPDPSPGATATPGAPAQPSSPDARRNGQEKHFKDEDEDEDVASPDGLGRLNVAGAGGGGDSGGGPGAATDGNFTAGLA

[6] = molecular target: SP1 (Homo sapiens, UniProt P08047)
SP1, sequence (P08047 whole entry): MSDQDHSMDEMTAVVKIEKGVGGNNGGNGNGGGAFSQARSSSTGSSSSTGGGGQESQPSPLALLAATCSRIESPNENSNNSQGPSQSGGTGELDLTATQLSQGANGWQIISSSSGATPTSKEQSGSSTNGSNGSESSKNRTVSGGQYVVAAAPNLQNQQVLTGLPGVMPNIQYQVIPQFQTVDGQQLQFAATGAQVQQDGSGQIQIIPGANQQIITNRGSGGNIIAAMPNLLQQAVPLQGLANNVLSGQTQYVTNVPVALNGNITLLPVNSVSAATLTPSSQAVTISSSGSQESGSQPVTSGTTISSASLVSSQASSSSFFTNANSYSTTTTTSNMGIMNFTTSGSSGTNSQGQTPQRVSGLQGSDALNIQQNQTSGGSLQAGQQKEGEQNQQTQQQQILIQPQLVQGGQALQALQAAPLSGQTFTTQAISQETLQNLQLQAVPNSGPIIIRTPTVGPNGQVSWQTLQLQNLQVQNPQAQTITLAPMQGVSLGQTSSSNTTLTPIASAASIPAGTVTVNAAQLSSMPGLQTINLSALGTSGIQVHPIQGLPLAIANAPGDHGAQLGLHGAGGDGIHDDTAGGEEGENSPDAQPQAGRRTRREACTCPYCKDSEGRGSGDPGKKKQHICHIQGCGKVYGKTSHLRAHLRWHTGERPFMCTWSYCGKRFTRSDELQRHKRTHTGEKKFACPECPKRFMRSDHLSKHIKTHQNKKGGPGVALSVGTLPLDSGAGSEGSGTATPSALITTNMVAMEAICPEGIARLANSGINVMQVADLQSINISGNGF

[7] = molecular target: KLF16 (Homo sapiens, UniProt Q9BXK1)
KLF16, sequence (Q9BXK1 whole entry): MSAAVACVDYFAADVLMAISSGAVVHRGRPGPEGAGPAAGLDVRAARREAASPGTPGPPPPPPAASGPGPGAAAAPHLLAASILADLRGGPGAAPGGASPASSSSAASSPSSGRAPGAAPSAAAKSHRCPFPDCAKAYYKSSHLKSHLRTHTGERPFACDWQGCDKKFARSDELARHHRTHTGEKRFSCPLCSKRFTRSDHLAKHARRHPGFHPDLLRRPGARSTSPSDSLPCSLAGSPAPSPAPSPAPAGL

[8] = molecular target: KLF4 (Homo sapiens, UniProt O43474)
KLF4, sequence (O43474 whole entry): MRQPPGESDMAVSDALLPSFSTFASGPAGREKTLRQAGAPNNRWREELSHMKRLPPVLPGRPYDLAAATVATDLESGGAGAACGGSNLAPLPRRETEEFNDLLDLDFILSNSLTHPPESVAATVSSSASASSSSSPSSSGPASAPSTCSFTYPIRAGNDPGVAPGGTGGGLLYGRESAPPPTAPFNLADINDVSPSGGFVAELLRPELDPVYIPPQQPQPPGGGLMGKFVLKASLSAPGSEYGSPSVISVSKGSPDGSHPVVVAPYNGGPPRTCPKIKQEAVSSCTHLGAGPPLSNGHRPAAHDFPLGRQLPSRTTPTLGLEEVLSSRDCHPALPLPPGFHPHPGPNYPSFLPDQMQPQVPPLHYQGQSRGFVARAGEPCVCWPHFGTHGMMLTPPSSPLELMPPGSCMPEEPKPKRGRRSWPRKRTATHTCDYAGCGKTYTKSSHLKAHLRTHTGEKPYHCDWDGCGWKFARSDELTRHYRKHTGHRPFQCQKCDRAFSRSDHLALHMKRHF

Binder | apparent K (half saturation) [1] | apparent K (half saturation) [2] | apparent K (half saturation) [3] | apparent K (half saturation) [4] | apparent K (half saturation) [5] | apparent K (half saturation) [6] | apparent K (half saturation) [7] | apparent K (half saturation) [8]
TEAD (dsDNA) DNA 1: TCGGGACCCAGGCCTGGAATGTTTCCACC DNA 2: GGTGGAAACATTCCAGGCCTGGGTCCCGA | 387 nM | 390 nM | 225 nM | 101 nM | 129 nM | – | – | –
TATA-box (dsDNA) DNA 1: GCGGCGCTCTATATAAGTGGGCAGTG DNA 2: CACTGCCCACTTATATAGAGCGCCGC | 383 nM | 405 nM | 227 nM | 219 nM | 258 nM | 284 nM | 151 nM | 159 nM
SP/KLF wild-type (dsDNA) DNA 1: GAGAGCCCCGCCCCCTGGCT DNA 2: AGCCAGGGGGCGGGGCTCTC | 70.5 nM | – | 182 nM | 37 nM | 174 nM | 38 nM | 14.5 nM | 79.3 nM
CTCF (dsDNA) DNA 1: TCAGAGTGGCGGCCAGCAGGGGGCGCCCTTGCCAGA DNA 2: TCTGGCAAGGGCGCCCCCTGCTGGCCGCCACTCTGA | 63.7 nM | 308 nM | 34.1 nM | 25.3 nM | 38.9 nM | 86.9 nM | 109 nM | 26.3 nM

From PMC5916898, “Global profiling of protein–DNA and protein–nucleosome binding affinities using quantitative mass spectrometry”
